{"source": "patent US20220040297A1", "about": "(Chugai, published 2022)", "binders": {"B1": {"name": "GLS3000 S27eA (antibody, name in Kabat numbering, V domains shown)", "VH": "QVQLVESGGGVVQPGRSLRLSCAASGFTFSNAWMHWVRQAPGKGLEWVAQIKAKSNNYATYYAESVKGRFTISRDDSKNSLYLQMNSLKTEDTAVYYCRYVHYGAYYGVDAWGQGTTVTVSS", "VL": "DIVMTQSPLSLPVTPGEPASISCRSSQSLVHANRNTYLHWYQQKPGQAPRLLIYKVSNRFSGVPDRFSGSGSGTDFTLKISRVEAEDVGVYYCGQGTQVPYTFGQGTKLEIK", "notes": "one-arm format as m2"}, "B2": {"name": "GLS3000 F55V (antibody, name in Kabat numbering, V domains shown)", "VH": "B1 VH", "VL": "B1 VL with A32S, F60V", "notes": "one-arm format as m2"}, "B3": {"name": "GLS3000 G89L (antibody, name in Kabat numbering, V domains shown)", "VH": "B1 VH", "VL": "B1 VL with A32S, G94L", "notes": "one-arm format as m2"}, "B4": {"name": "GLS3000 F55I (antibody, name in Kabat numbering, V domains shown)", "VH": "B1 VH", "VL": "B1 VL with A32S, F60I", "notes": "one-arm format as m2"}, "B5": {"name": "GLS3000 F55A (antibody, name in Kabat numbering, V domains shown)", "VH": "B1 VH", "VL": "B1 VL with A32S, F60A", "notes": "one-arm format as m2"}, "B6": {"name": "GLS3000 G89E (antibody, name in Kabat numbering, V domains shown)", "VH": "B1 VH", "VL": "B1 VL with A32S, G94E", "notes": "one-arm format as m2"}, "B7": {"name": "GLS3000 F55Q (antibody, name in Kabat numbering, V domains shown)", "VH": "B1 VH", "VL": "B1 VL with A32S, F60Q", "notes": "one-arm format as m2"}, "B8": {"name": "GLS3000 G89H (antibody, name in Kabat numbering, V domains shown)", "VH": "B1 VH", "VL": "B1 VL with A32S, G94H", "notes": "one-arm format as m2"}, "B9": {"name": "GLS3000 G89K (antibody, name in Kabat numbering, V domains shown)", "VH": "B1 VH", "VL": "B1 VL with A32S, G94K", "notes": "one-arm format as m2"}, "B10": {"name": "GLS3000 G89F (antibody, name in Kabat numbering, V domains shown)", "VH": "B1 VH", "VL": "B1 VL with A32S, G94F", "notes": "one-arm format as m2"}, "B11": {"name": "GLS3000 F55D (antibody, name in Kabat numbering, V domains shown)", "VH": "B1 VH", "VL": "B1 VL with A32S, F60D", "notes": "one-arm format as m2"}, "B12": {"name": "GLS3000 G89M (antibody, name in Kabat numbering, V domains shown)", "VH": "B1 VH", "VL": "B1 VL with A32S, G94M", "notes": "one-arm format as m2"}, "B13": {"name": "GLS3000 F55W (antibody, name in Kabat numbering, V domains shown)", "VH": "B1 VH", "VL": "B1 VL with A32S, F60W", "notes": "one-arm format as m2"}, "B14": {"name": "GLS3000 F55G (antibody, name in Kabat numbering, V domains shown)", "VH": "B1 VH", "VL": "B1 VL with A32S, F60G", "notes": "one-arm format as m2"}, "B15": {"name": "GLS3000 F55N (antibody, name in Kabat numbering, V domains shown)", "VH": "B1 VH", "VL": "B1 VL with A32S, F60N", "notes": "one-arm format as m2"}, "B16": {"name": "GLS3000 F55S (antibody, name in Kabat numbering, V domains shown)", "VH": "B1 VH", "VL": "B1 VL with A32S, F60S", "notes": "one-arm format as m2"}, "B17": {"name": "GLS3000 G89A (antibody, name in Kabat numbering, V domains shown)", "VH": "B1 VH", "VL": "B1 VL with A32S, G94A", "notes": "one-arm format as m2"}, "B18": {"name": "GLS3000 F55M (antibody, name in Kabat numbering, V domains shown)", "VH": "B1 VH", "VL": "B1 VL with A32S, F60M", "notes": "one-arm format as m2"}, "B19": {"name": "GLS3000 F55L (antibody, name in Kabat numbering, V domains shown)", "VH": "B1 VH", "VL": "B1 VL with A32S, F60L", "notes": "one-arm format as m2"}, "B20": {"name": "GLS3000 G89Q (antibody, name in Kabat numbering, V domains shown)", "VH": "B1 VH", "VL": "B1 VL with A32S, G94Q", "notes": "one-arm format as m2"}, "B21": {"name": "GLS3000 F55E (antibody, name in Kabat numbering, V domains shown)", "VH": "B1 VH", "VL": "B1 VL with A32S, F60E", "notes": "one-arm format as m2"}, "B22": {"name": "GLS3000 F55P (antibody, name in Kabat numbering, V domains shown)", "VH": "B1 VH", "VL": "B1 VL with A32S, F60P", "notes": "one-arm format as m2"}, "B23": {"name": "GLS3000 F55K (antibody, name in Kabat numbering, V domains shown)", "VH": "B1 VH", "VL": "B1 VL with A32S, F60K", "notes": "one-arm format as m2"}, "B24": {"name": "GLS3000 F55R (antibody, name in Kabat numbering, V domains shown)", "VH": "B1 VH", "VL": "B1 VL with A32S, F60R", "notes": "one-arm format as m2"}, "B25": {"name": "GLS3000 F55Y (antibody, name in Kabat numbering, V domains shown)", "VH": "B1 VH", "VL": "B1 VL with A32S, F60Y", "notes": "one-arm format as m2"}, "B26": {"name": "GLS3000 F55H (antibody, name in Kabat numbering, V domains shown)", "VH": "B1 VH", "VL": "B1 VL with A32S, F60H", "notes": "one-arm format as m2"}, "B27": {"name": "GLS3000 G89N (antibody, name in Kabat numbering, V domains shown)", "VH": "B1 VH", "VL": "B1 VL with A32S, G94N", "notes": "one-arm format as m2"}, "B28": {"name": "GLS3000 G89I (antibody, name in Kabat numbering, V domains shown)", "VH": "B1 VH", "VL": "B1 VL with A32S, G94I", "notes": "one-arm format as m2"}, "B29": {"name": "GLS3000 G89P (antibody, name in Kabat numbering, V domains shown)", "VH": "B1 VH", "VL": "B1 VL with A32S, G94P", "notes": "one-arm format as m2"}, "B30": {"name": "GLS3000 F55T (antibody, name in Kabat numbering, V domains shown)", "VH": "B1 VH", "VL": "B1 VL with A32S, F60T", "notes": "one-arm format as m2"}, "B31": {"name": "GLS3000 G89D (antibody, name in Kabat numbering, V domains shown)", "VH": "B1 VH", "VL": "B1 VL with A32S, G94D", "notes": "one-arm format as m2"}}, "note": "Substitutions are numbered along the chain they refer to."}
{"target": "CD3ε homodimer protein (human, UniProt P07766 23-126, limits assumed)", "sequence (P07766 23-126 limits assumed)": "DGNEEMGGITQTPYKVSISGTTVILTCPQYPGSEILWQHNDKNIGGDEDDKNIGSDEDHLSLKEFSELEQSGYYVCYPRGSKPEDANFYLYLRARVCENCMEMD", "assay": "SPR, immobilized CD3ε homodimer;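 further: biacore T200 surface plasmon resonance at 25 °C, antibody variants flowed as analytes over amine-coupled CD3ε homodimer on a CM4 chip, variant binding amount divided by that of GLS3000 antibody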"}
{"binder": "B1", "ratio of amounts bound (vs GLS3000)": 1.03}
{"binder": "B2", "ratio of amounts bound (vs GLS3000)": 0.71}
{"binder": "B3", "ratio of amounts bound (vs GLS3000)": 0.94}
{"binder": "B4", "ratio of amounts bound (vs GLS3000)": 0.82}
{"binder": "B5", "ratio of amounts bound (vs GLS3000)": 1.13}
{"binder": "B6", "ratio of amounts bound (vs GLS3000)": 0.26}
{"binder": "B7", "ratio of amounts bound (vs GLS3000)": 0.91}
{"binder": "B8", "ratio of amounts bound (vs GLS3000)": 0.7}
{"binder": "B9", "ratio of amounts bound (vs GLS3000)": 0.4}
{"binder": "B10", "ratio of amounts bound (vs GLS3000)": 1.09}
{"binder": "B11", "ratio of amounts bound (vs GLS3000)": 0.65}
{"binder": "B12", "ratio of amounts bound (vs GLS3000)": 0.52}
{"binder": "B13", "ratio of amounts bound (vs GLS3000)": 0.69}
{"binder": "B14", "ratio of amounts bound (vs GLS3000)": 1.31}
{"binder": "B15", "ratio of amounts bound (vs GLS3000)": 0.98}
{"binder": "B16", "ratio of amounts bound (vs GLS3000)": 0.69}
{"binder": "B17", "ratio of amounts bound (vs GLS3000)": 1.13}
{"binder": "B18", "ratio of amounts bound (vs GLS3000)": 0.8}
{"binder": "B19", "ratio of amounts bound (vs GLS3000)": 0.76}
{"binder": "B20", "ratio of amounts bound (vs GLS3000)": 0.38}
{"binder": "B21", "ratio of amounts bound (vs GLS3000)": 0.72}
{"binder": "B22", "ratio of amounts bound (vs GLS3000)": 1.16}
{"binder": "B23", "ratio of amounts bound (vs GLS3000)": 1.33}
{"binder": "B24", "ratio of amounts bound (vs GLS3000)": 1.31}
{"binder": "B25", "ratio of amounts bound (vs GLS3000)": 0.92}
{"binder": "B26", "ratio of amounts bound (vs GLS3000)": 0.94}
{"binder": "B27", "ratio of amounts bound (vs GLS3000)": 0.8}
{"binder": "B28", "ratio of amounts bound (vs GLS3000)": 1.07}
{"binder": "B29", "ratio of amounts bound (vs GLS3000)": 0.35}
{"binder": "B30", "ratio of amounts bound (vs GLS3000)": 0.41}
{"binder": "B31", "ratio of amounts bound (vs GLS3000)": 0.33}
